B1: Transmembrane 4 L6 family member 1 (Homo sapiens), P30408 (parent)
chain: MCYGKCARCIGHSLVGLALLCIAANILLYFPNGETKYASENHLSRFVWFFSGIVGGGLLMLLPAFVFIGLEQDDCCGCCGHENCGKRCAMLSSVLAALIGIAGSGYCVIVAALGLAEGPLCLDSLGQWNYTFASTEGQYLLDTSTWSECTEPKHIVEWNVSLFSILLALGGIEFILCLIQVINGVLGGICGFCCSHQQQYDC
partner: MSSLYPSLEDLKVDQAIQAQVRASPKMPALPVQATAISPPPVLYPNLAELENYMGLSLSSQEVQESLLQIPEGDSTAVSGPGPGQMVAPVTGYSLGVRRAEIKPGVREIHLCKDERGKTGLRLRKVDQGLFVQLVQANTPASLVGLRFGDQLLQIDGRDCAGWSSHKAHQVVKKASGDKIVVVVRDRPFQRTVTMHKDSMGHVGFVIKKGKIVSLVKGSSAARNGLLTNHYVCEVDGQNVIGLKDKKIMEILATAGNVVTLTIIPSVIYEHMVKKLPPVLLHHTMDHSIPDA

The variants in this experiment derive from B1. The settings on record: with sdcb2_human SDCBP2, Q9H190.
On to C202G, for which the “effect of a mutation on the interaction” value was “disrupting interaction strength”.
